Assay results: patent US20090099029A1, “Methods and substrates for conducting assays” (Invitrogen Corporation, priority 2005, published 2009)
Positions count from the first letter of the chain named.

B1: IRAK4 (protein)
chain: MNKPITPSTYVRCLNVGLIRKLSDFIDPQEGWKKLAVAIKKPSGDDRYNQFHIRRFEALLQTGKSPTSELLFDWGTTNCTVGDLVDLLIQNEFFAPASLLLPDAVPKTANTLPSKEAITVQQKQMPFCDKDRTLMTPVQNLEQSYMPPDSSSPENKSLEVSDTRFHSFSFYELKNVTNNFDERPISVGGNKMGEGGFGVVYKGYVNNTTVAVKKLAAMVDITTEELKQQFDQEIKVMAKCQHENLVELLGFSSDGDDLCLVYVYMPNGSLLDRLSCLDGTPPLSWHMRCKIAQGAANGINFLHENHHIHRDIKSANILLDEAFTAKISDFGLARASEKFAQTVMTSRIVGTTAYMAPEALRGEITPKSDIYSFGVVLLEIITGLPAVDEHREPQLLLDIKEEIEDEEKTIEDYIDKKMNDADSTSVEAMYSVASQCLHEKKNKRPDIKKVQQLLQEMTAS
modifications: left off: small tags and cut ends
B2: GSK3A (protein)
chain: MSGGGPSGGGPGGSGRARTSSFAEPGGGGGGGGGGPGGSASGPGGTGGGKASVGAMGGGVGASSSGGGPGGSGGGGSGGPGAGTSFPPPGVKLGRDSGKVTTVVATLGQGPERSQEVAYTDIKVIGNGSFGVVYQARLAETRELVAIKKVLQDKRFKNRELQIMRKLDHCNIVRLRYFFYSSGEKKDELYLNLVLEYVPETVYRVARHFTKAKLTIPILYVKVYMYQLFRSLAYIHSQGVCHRDIKPQNLLVDPDTAVLKLCDFGSAKQLVRGEPNVSYICSRYYRAPELIFGATDYTSSIDVWSAGCVLAELLLGQPIFPGDSGVDQLVEIIKVLGTPTREQIREMNPNYTEFKFPQIKAHPWTKVFKSRTPPEAIALCSSLLEYTPSSRLSPLEACAHSFFDELRCLGTQLPNNRPLPPLFNFSAGELSIQPSLNAILIPPHLRSPAGTTTLTPSSQALTETPTSSDWQSTDATPTLTNSS
modifications: left off: small tags and cut ends
B3: GRK6 (protein)
chain: MELENIVANTVLLKAREGGGGNRKGKSKKWRQMLQFPHISQCEELRLSLERDYHSLCERQPIGRLLFREFCATRPELSRCVAFLDGVAEYEVTPDDKRKACGRQLTQNFLSHTGPDLIPEVPRQLVTNCTQRLEQGPCKDLFQELTRLTHEYLSVAPFADYLDSIYFNRFLQWKWLERQPVTKNTFRQYRVLGKGGFGEVCACQVRATGKMYACKKLEKKRIKKRKGEAMALNEKQILEKVNSRFVVSLAYAYETKDALCLVLTLMNGGDLKFHIYHMGQAGFPEARAVFYAAEICCGLEDLHRERIVYRDLKPENILLDDHGHIRISDLGLAVHVPEGQTIKGRVGTVGYMAPEVVKNERYTFSPDWWALGCLLYEMIAGQSPFQQRKKKIKREEVERLVKEVPEEYSERFSPQARSLCSQLLCKDPAERLGCRGGSAREVKEHPLFKKLNFKRLGAGMLEPPFKPDPQAIYCKDVLDIEQFSTVKGVELEPTDQDFYQKFATGSVPIPWQNEMVETECFQELNVFGLDGSVPPDLDWKGQPPAPPKKGLLQRLFSRQDCCGNCSDSEEELPTRL
modifications: left off: a dimerising Fc or GST
B4: MAP2K6(MKK6) (protein)
chain: MSQSKGKKRNPGLKIPKEAFEQPQTSSTPPRDLDSKACISIGNQNFEVKADDLEPIMELGRGAYGVVEKMRHVPSGQIMAVKRIRATVNSQEQKRLLMDLDISMRTVDCPFTVTFYGALFREGDVWICMELMDTSLDKFYKQVIDKGQTIPEDILGKIAVSIVKALEHLHSKLSVIHRDVKPSNVLINALGQVKMCDFGISGYLVDSVAKTIDAGCKPYMAPERINPELNQKGYSVKSDIWSLGITMIELAILRFPYDSWGTPFQQLKQVVEEPSPQLPADKFSAEFVDFTSQCLKKNSKERPTYPELMQHPFFTLHESKGTDVASFVKLILGD
modifications: left off: small tags and cut ends
B5: MAP2K6, mutant (protein)
chain: B4 chain with S207E, T211E
modifications: left off: small tags and cut ends
B6: GRK7 (protein)
chain: MVDMGALDNLIANTAYLQARKPSDCDSKELQRRRRSLALPGLQGCAELRQKLSLNFHSLCEQQPIGRRLFRDFLATVPTFRKAATFLEDVQNWELAEEGPTKDSALQGLVATCASAPAPGNPQPFLSQAVATKCQAATTEEERVAAVTLAKAEAMAFLQEQPFKDFVTSAFYDKFLQWKLFEMQPVSDKYFTEFRVLGKGGFGEVCAVQVKNTGKMYACKKLDKKRLKKKGGEKMALLEKEILEKVSSPFIVSLAYAFESKTHLCLVMSLMNGGDLKFHIYNVGTRGLDMSRVIFYSAQIACGMLHLHELGIVYRDMKPENVLLDDLGNCRLSDLGLAVEMKGGKPITQRAGTNGYMAPEILMEKVSYSYPVDWFAMGCSIYEMVAGRTPFKDYKEKVSKEDLKQRTLQDEVKFQHDNFTEEAKDICRLFLAKKPEQRLGSREKSDDPRKHHFFKTINFPRLEAGLIEPPFVPDPSVVYAKDIAEIDDFSEVRGVEFDDKDKQFFKNFATGAVPIAWQEEIIETGLFEELNDPNRPTGCEEGNSSKSGVCLLL
modifications: left off: a dimerising Fc or GST
B7: MAP2K3(MEK3) (protein)
chain: MSKPPAPNPTPPRNLDSRTFITIGDRNFEVEADDLVTISELGRGAYGVVEKVRHAQSGTIMAVKRIRATVNSQEQKRLLMDLDINMRTVDCFYTVTFYGALFREGDVWICMELMDTSLDKFYRKVLDKNMTIPEDILGEIAVSIVRALEHLHSKLSVIHRDVKPSNVLINKEGHVKMCDFGISGYLVDSVAKTMDAGCKPYMAPERINPELNQKGYNVKSDVWSLGITMIEMAILRFPYESWGTPFQQLKQVVEEPSPQLPADRFSPEFVDFTAQCLRKNPAERMSYLELMEHPFFTLHKTKKTDIAAFVKEILGEDS
modifications: left off: a dimerising Fc or GST
B8: MAP3K2(MEKK2) (protein)
chain: MDDQQALNSIMQDLAVLHKASRPALSLQETRKAKSSSPKKQNDVRVKFEHRGEKRILQFPRPVKLEDLRSKAKIAFGQSMDLHYTNNELVIPLTTQDDLDKAVELLDRSIHMKSLKILLVINGSTQATNLEPLPSLEDLDNTVFGAERKKRLSIIGPTSRDRSSPPPGYIPDELHQVARNGSFTSINSEGEFIPESMDQMLDPLSLSSPENSGSGSCPSLDSPLDGESYPKSRMPRAQSYPDNHQEFSDYDNPIFEKFGKGGTYPRRYHVSYHHQEYNDGRKTFPRARRTQGTSLRSPVSFSPTDHSLSTSSGSSIFTPEYDDSRIRRRGSDIDNPTLTVMDISPPSRSPRAPTNWRLGKLLGQGAFGRVYLCYDVDTGRELAVKQVQFDPDSPETSKEVNALECEIQLLKNLLHERIVQYYGCLRDPQEKTLSIFMEYMPGGSIKDQLKAYGALTENVTRKYTRQILEGVHYLHSNMIVHRDIKGANILRDSTGNVKLGDFGASKRLQTICLSGTGMKSVTGTPYWMSPEVISGEGYGRKADIWSVACTVVEMLTEKPPWAEFEAMAAIFKIATQPTNPKLPPHVSDYTRDFLKRIFVEAKLRPSADELLRHMFVHYH
modifications: left off: a dimerising Fc or GST
B9: MAP3K11(MLK3) (protein)
chain: MEPLKSLFLKSPLGSWNGSGSGGGGGGGGGRPEGSPKAAGYANPVWTALFDYEPSGQDELALRKGDRVEVLSRDAAISGDEGWWAGQVGGQVGIFPSNYVSRGGGPPPCEVASFQELRLEEVIGIGGFGKVYRGSWRGELVAVKAARQDPDEDISVTAESVRQEARLFAMLAHPNIIALKAVCLEEPNLCLVMEYAAGGPLSRALAGRRVPPHVLVNWAVQIARGMHYLHCEALVPVIHRDLKSNNILLLQPIESDDMEHKTLKITDFGLAREWHKTTQMSAAGTYAWMAPEVIKASTFSKGSDVWSFGVLLWELLTGEVPYRGIDCLAVAYGVAVNKLTLPIPSTCPEPFAQLMADCWAQDPHRRPDFASILQQLEALEAQVLREMPRDSFHSMQEGWKREIQGLFDELRAKEKELLSREEELTRAAREQRSQAEQLRRREHLLAQWELEVFERELTLLLQQVDRERPHVRRRRGTFKRSKLRARDGGERISMPLDFKHRITVQASPGLDRRRNVFEVGPGDSPTFPRFRAIQLEPAEPGQAWGRQSPRRLEDSSNGERRACWAWGPSSPKPGEAQNGRRRSRMDEATWYLDSDDSSPLGSPSTPPALNGNPPRPSLEPEEPKRPVPAERGSSSGTPKLIQRALLRGTALLASLGLGRDLQPPGGPGRERGESPTTPPTPTPAPCPTEPPPSPLICFSLKTPDSPPTPAPLLLDLGIPVGQRSAKSPRREEEPRGGTVSPPPGTSRSAPGTPGTPRSPPLGLISRPRPSPLRSRIDPWSFVSAGPRPSPLPSPQPAPRRAPWTLFPDSDPFWDSPPANPFQGGPQDCRAQTKDMGAQAPWVPEAGP
modifications: left off: a dimerising Fc or GST
B10: EPHA3 (protein)
chain: RFCGYKSKHGADEKRLHFGNGHLKLPGLRTYVDPHTYEDPTQAVHEFAKELDATNISIDKVVGAGEFGEVCSGRLKLPSKKEISVAIKTLKVGYTEKQRRDFLGEASIMGQFDHPNIIRLEGVVTKSKPVMIVTEYMENGSLDSFLRKHDAQFTVIQLVGMLRGIASGMKYLSDMGYVHRDLAARNILINSNLVCKVSDFGLSRVLEDDPEAAYTTRGGKIPIRWTSPEAIAYRKFTSASDVWSYGIVLWEVMSYGERPYWEMSNQDVIKAVDEGYRLPPPMDCPAALYQLMLDCWQKDRNNRPKFEQIVSILDKLIRNPGSLKIITSAAARPSNLLLDQSNVDITTFRTTGDWLNGVWTAHCKEIFTGVEYSSCDTIAKISTDDMKKVGVTVVGPQKKIISSIKALETQSKNGPVPV
modifications: left off: small tags and cut ends

Each molecule was assayed on kinases of Table 6 on Myelin Basic Protein (MBP) (assay: Kinase assay using MBP substrate, ProQ Diamond stain (Table 6)). Settings: kinase printed on MBP-coated slide; 20 uM ATP, 30° C.; ProQ Diamond Microarray Stain; graded Strong/Weak/Negative.
Format: biochemical
Description: In this illustrative example, four-well slides were designed with a hydrophobic mask surrounding 4-wells of aldehyde- or epoxy-coated glass (smooth or ES grade; Erie Scientific (Portsmouth, N.H.)). […] Bovine, dephosphorylated, Myelin Basic Protein (MBP) was purchased from Upstate Biotechnology (#13-110). MBP was diluted to 1 mg/ml in PBS, applied to the slide surface, covered with a coverslip, and left overnight at 4° C. to coat the slide with the MBP. Slides were washed 3 times with water and spun dry before printing.
Kinases were purchased from Panvera (Invitrogen, Carlsbad, Calif.), diluted in printing buffer (50 mM Tris pH 7.5, 25% glyercol, 0.05% TritonX-100, 2 mM DTT) and deposited using a GeneMachine OmniGrid100. Slides were stored at −20° C.
Reactions were performed following removal of the slide from the freezer. Reaction buffer (20 mM HEPES pH 7.5, 4 mM MgCl2, 2 mM DTT, 20 uM ATP, 5% DMSO) was added with or without inhibitor, a coverslip applied, and the slide placed at 30° C. for the appropriate reaction time. The slide was washed with water to stop the reaction (3 times) and spun dry. ProQ Diamond Microarray Stain (Invitrogen #P33706) was applied, covered with a coverslip, and the slide was incubated in the dark at room temperature for 30 minutes. The slide was destained and washed three times with water, and spun dry.

Molecule	MBP Kinase Activity
B1	Strong
B2	Weak
B3	Negative
B4	Weak
B5	Negative
B6	Negative
B7	Negative
B8	Weak
B9	Negative
B10	Strong
